What was measured:
Assay in all cases: IEDB peptide-MHC binding, purified MHC/competitive/radioactivity; filed as Kd, often an IC50 or EC50 that approximates it; ≥ and ≤ were set here for values at or beyond the usual limits of such assays
[1] = biological target: HLA-A*03:01
[2] = biological target: HLA-A*11:01
[3] = biological target: HLA-A*31:01
[4] = biological target: HLA-A*33:01
[5] = biological target: HLA-A*68:01
[6] = biological target: HLA-A*02:06
[7] = biological target: HLA-A*02:03
[8] = source organism: Vaccinia virus WR
[9] = source organism: Dengue virus 2 Jamaica/1409/1983
[10] = source organism: SARS coronavirus Tor2
[11] = source organism: Dengue virus 3 Sri Lanka/1266/2000
[12] = source organism: Lymphocytic choriomeningitis virus (strain Traub)
[13] = source organism: Vaccinia virus Copenhagen
[14] = source organism: Dengue virus 1 Brazil/97-11/1997
[15] = source organism: Dengue virus 4 Philippines/H241/1956
[16] = source organism: Dengue virus 3 Martinique/1243/1999
[17] = source organism: Mammarenavirus machupoense
[18] = source organism: Mammarenavirus juninense
[19] = source organism: Dengue virus 1 Nauru/West Pac/1974
[20] = source organism: Lassa virus Josiah
[21] = source organism: Mammarenavirus guanaritoense

ISRDELWAR showed a Kd [1, 8] of at least 78000 nM, a Kd [2, 8] of at least 22200 nM and a Kd [3, 8] of 47.8 nM. For the same sequence, the Kd [4, 8] was 1.69 nM and the Kd [5, 8] was 946 nM.

Sequence ISSRVDRYSK has a Kd [1, 8] of at least 27300 nM, a Kd [2, 8] of 287 nM and a Kd [3, 8] of 7200 nM. For the same sequence, the Kd [4, 8] was at least 70000 nM and the Kd [5, 8] was 861 nM.

With ITLDTMDDMK the Kd [1, 8] was 3190 nM, the Kd [2, 8] was 42.3 nM and the Kd [3, 8] was 16700 nM. It also gave a Kd [4, 8] of at least 70000 nM and a Kd [5, 8] of 122 nM.

ITYKCPLLR was tested, and the Kd [1, 9] was 16.1 nM, the Kd [2, 9] was 63.9 nM and the Kd [3, 9] was 11.6 nM. It also gave a Kd [4, 9] of 200 nM and a Kd [5, 9] of 59.4 nM.

Sequence IVQMLSDTLK has a Kd [1, 10] of 292 nM, a Kd [2, 10] of 64.4 nM and a Kd [3, 10] of 3820 nM. For the same sequence, the Kd [4, 10] was at least 22500 nM and the Kd [5, 10] was 1180 nM.

With IVSSVNMVSR the Kd [3, 11] was 82.7 nM, the Kd [4, 11] was 346 nM and the Kd [5, 11] was 9.22 nM.

For KCHDHYLCR, the Kd [1, 12] was 7630 nM, the Kd [2, 12] was 3270 nM and the Kd [3, 12] was 109 nM. For the same sequence, the Kd [4, 12] was 1350 nM and the Kd [5, 12] was at least 48000 nM.

In the case of KLKHRDGFTK, the Kd [1, 13] is reported as 37.3 nM, the Kd [2, 13] is reported as 131 nM and the Kd [3, 13] is reported as 726 nM. The Kd [4, 13] was at least 29100 nM and the Kd [5, 13] was at least 38700 nM.

KNGAIKVLR showed a Kd [3, 14] of at least 51000 nM.

KQLGQIMLL showed a Kd [6, 14] of 5.76 nM.

In the case of KSVLDIISSK, the Kd [1, 13] is reported as 24.5 nM, the Kd [2, 13] is reported as 8.96 nM and the Kd [3, 13] is reported as 152 nM. For the same sequence, the Kd [4, 13] was 19900 nM and the Kd [5, 13] was 267 nM.

LALSLTFIR showed a Kd [3, 15] of 97.1 nM and a Kd [4, 15] of 6.39 nM.

Sequence LLILCTSQI has a Kd [7, 14] of 8.71 nM.

In the case of LLKTALLIV, the Kd [7, 16] is reported as 10.6 nM.

Work on LLNRFTMAHR yielded a Kd [3, 14] of at least 48500 nM.

With LMAFANQIHH the Kd [1, 17] was 931 nM, the Kd [2, 17] was 15300 nM and the Kd [3, 17] was at least 22300 nM. For the same sequence, the Kd [4, 17] was at least 70000 nM and the Kd [5, 17] was at least 47300 nM.

Work on LMAYANQIHH yielded a Kd [1, 18] of 523 nM, a Kd [2, 18] of 9790 nM and a Kd [3, 18] of at least 24500 nM. For the same sequence, the Kd [4, 18] was at least 53900 nM and the Kd [5, 18] was at least 24200 nM.

LMYFHRRDLR gave a Kd [1, 9] of 142 nM, a Kd [3, 9] of 0.556 nM and a Kd [4, 9] of 17.3 nM. The Kd [5, 9] was 207 nM.

LQMEDKAWL showed a Kd [6, 9] of 32.2 nM.

For LQMENKAWL, the Kd ([6]; source organism: Dengue virus 2 16681-PDK53) was 22.8 nM.

Work on LSIVVDINK yielded a Kd [1, 8] of 5120 nM, a Kd [2, 8] of 23.8 nM and a Kd [3, 8] of 4130 nM. It also gave a Kd [4, 8] of at least 77700 nM and a Kd [5, 8] of 15.1 nM.

With LSKIPYLRNY the Kd [1, 8] was 6940 nM, the Kd [2, 8] was 2610 nM and the Kd [3, 8] was 320 nM. The Kd [4, 8] was 9090 nM and the Kd [5, 8] was 9650 nM.

With LTALNDMGK the Kd [2, 9] was 1450 nM and the Kd [5, 9] was 528 nM.

In the case of LTIMDLHPGA, the Kd [6, 9] is reported as 105 nM.

For LTMFLITENK, the Kd [1, 19] was 4.57 nM, the Kd [2, 19] was 30.4 nM and the Kd [5, 19] was 23 nM.

For LTTHCTKLR, the Kd [1, 8] was at least 78000 nM, the Kd [2, 8] was at least 77900 nM and the Kd [3, 8] was 8510 nM. The Kd [4, 8] was 4530 nM and the Kd [5, 8] was 300 nM.

For LVFNSISAR, the Kd [1, 8] was 4.22 nM, the Kd [2, 8] was 27 nM and the Kd [3, 8] was 2.5 nM. The Kd [4, 8] was 1040 nM and the Kd [5, 8] was 143 nM.

With MGANFRAGR the Kd [5, 15] was 46.7 nM.

MLNRVQILMK gave a Kd [1, 8] of 1.28 nM, a Kd [2, 8] of 130 nM and a Kd [3, 8] of 619 nM. It also gave a Kd [4, 8] of 2780 nM and a Kd [5, 8] of 698 nM.

Work on MLRLFDFNK yielded a Kd [1, 20] of 84.6 nM, a Kd [2, 20] of 50 nM and a Kd [3, 20] of 129 nM. It also gave a Kd [4, 20] of 527 nM and a Kd [5, 20] of 571 nM.

MSAAIKDSK gave a Kd [2, 14] of 1120 nM and a Kd [5, 14] of 76.6 nM.

MSHLKVALY gave a Kd [1, 8] of 320 nM, a Kd [2, 8] of 1690 nM and a Kd [3, 8] of 703 nM. For the same sequence, the Kd [4, 8] was 18100 nM and the Kd [5, 8] was 147 nM.

In the case of MTLMKGASKR, the Kd [3, 15] is reported as 78.5 nM, the Kd [4, 15] is reported as 68.2 nM and the Kd [5, 15] is reported as 94.5 nM.

Sequence NIHTAITQVR has a Kd [5, 15] of 167 nM.

For NMTSRMLLNR, the Kd [3, 14] was 12000 nM, the Kd [4, 14] was 73.7 nM and the Kd [5, 14] was 470 nM.

NSISARALK gave a Kd [1, 8] of 78.7 nM, a Kd [2, 8] of 3.99 nM and a Kd [3, 8] of 11.1 nM. The Kd [4, 8] was 6.53 nM and the Kd [5, 8] was 4.9 nM.

For NTPECPSASR, the Kd [5, 16] was 4.83 nM.

In the case of QMWQLMYFHR, the Kd [3, 14] is reported as at least 39900 nM and the Kd [4, 14] is reported as 0.396 nM.

QMWSLMYFHR showed a Kd [3, 16] of 1.41 nM and a Kd [4, 16] of 4.14 nM.

With RLASAILNA the Kd [7, 15] was 22.8 nM.

With RSCSFKVGHH the Kd [1, 21] was 11400 nM, the Kd [3, 21] was 477 nM and the Kd [4, 21] was at least 70000 nM. For the same sequence, the Kd [5, 21] was at least 36600 nM.

For SLAAIANQA, the Kd [7, 16] was 55 nM.

Sequence SLVMLLVHYA has a Kd [7, 15] of 640 nM and a Kd [6, 15] of 423 nM.

In the case of TLCAIILGGL, the Kd [7, 15] is reported as 3.7 nM.

TLMSIVSSLH showed a Kd ([4]; source organism: Lymphocytic choriomeningitis virus (strain Armstrong)) of at least 70000 nM.

TLWEGSPGK showed a Kd [1, 14] of 328 nM.

With TMWHVTRGSV the Kd [7, 15] was 24.3 nM.

TTIITPMMR showed a Kd [2, 19] of 215 nM, a Kd [4, 19] of 52.9 nM and a Kd [5, 19] of 4.15 nM.

For VIYDSKFEK, the Kd [1, 16] was 64.3 nM and the Kd [2, 16] was 41.6 nM.

In the case of VQTAPGTFK, the Kd ([2]; source organism: Dengue virus 1 Singapore/S275/1990) is reported as 129 nM.

VSQLAKRFSK showed a Kd [2, 19] of 126 nM.

For VSSVNTTSK, the Kd [2, 15] was 1390 nM.

With VTNPAVLRK the Kd [1, 14] was 4.28 nM and the Kd [2, 14] was 16.5 nM.

In the case of YLWEVKKQR, the Kd [4, 9] is reported as 65.4 nM.

Work on YVASYLLAAL yielded a Kd ([7]; source organism: Homo sapiens) of 1.04 nM.

Source: the Immune Epitope Database (IEDB)
